Target: T1, 6His-Slx5, recombinant (S. cerevisiae, UniProt P32828 1-619)
T1 construct: Slx5, S. cerevisiae; Host and purification are in the Appendix Supplementary Methods; source: recombinant
T1 sequence (looked up): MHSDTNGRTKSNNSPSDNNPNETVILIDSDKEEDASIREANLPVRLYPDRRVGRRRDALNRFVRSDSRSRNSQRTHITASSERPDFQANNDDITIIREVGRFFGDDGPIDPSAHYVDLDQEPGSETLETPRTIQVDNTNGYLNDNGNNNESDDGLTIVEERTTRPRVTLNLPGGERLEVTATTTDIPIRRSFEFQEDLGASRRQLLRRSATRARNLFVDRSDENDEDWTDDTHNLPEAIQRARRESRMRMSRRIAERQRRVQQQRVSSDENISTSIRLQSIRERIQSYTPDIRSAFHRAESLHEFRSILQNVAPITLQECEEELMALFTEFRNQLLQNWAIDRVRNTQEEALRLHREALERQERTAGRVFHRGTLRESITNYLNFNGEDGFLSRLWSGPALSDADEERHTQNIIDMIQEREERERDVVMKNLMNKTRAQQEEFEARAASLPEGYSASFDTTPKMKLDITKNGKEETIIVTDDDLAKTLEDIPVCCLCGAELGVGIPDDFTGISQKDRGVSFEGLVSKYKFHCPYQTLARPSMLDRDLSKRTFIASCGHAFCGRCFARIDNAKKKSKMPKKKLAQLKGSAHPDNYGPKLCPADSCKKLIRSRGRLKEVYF
Assay: pull-down; GST pull-down: recombinant purified GST or GST-Euc1 used to co-precipitate recombinant 6His-Slx5
Details: both partners purified

binding result: binds
B1: GST-Euc1, recombinant (natural protein, S. cerevisiae, UniProt Q04461 1-462, looked up)
chain: MPAREYNYVEGFGGYGSLDDDDSDRDSERRNHDLGQRTITTSPTGVSRHAALNRYMIPGRINPLFRPTDAAQPPIVSTSTSASATEPTNRIGPGRIKETPETNFNAFLIAQLTRMEEQNANLKEEISLMKKEQELFFLENQKKLEKGFKDINKYVEDVSAMKEVFKEVVGIMTGERIRFIDHTGENVTPQEAARVGNPSTSTQAHQSQSRSTNWQEYSMHASILAGDPRIKPEPGLSDFENGEYDGNESDENATTRNLPLNNPDSVSNADDSNNQLDGTGNENDIRNRRGCVGTSYKLNRAIQNVTDAAREYFEGLPGQPSVLSLERRYGSTWRRSAKERTLFTKRMTIIKRIIDIKDDPSKYGLSLPENKISRNQAIKVVENIRLGNNTFKGHHCRLSMSQLYEYFSKKMDKLEDYSLTLKRRGKPRRIFLLEEREARLSLQQPHSIPNSSTGTPEHDQDT
notes: Euc1 (Ymr111c), S. cerevisiae; Host and purification are in the Appendix Supplementary Methods; also called recombinant, non‐SUMOylated Euc1; source: recombinant, purified
